What was measured:
[1] = target: Zika virus (ZIKV), whole virus particles (Zika virus); experiment: virus capture ELISA
[2] = target: Zika virus (ZIKV), whole virus particles (Zika virus); experiment: cell-based or functional assay

B1: CC4 mAb (P1604) (antibody, V domains shown)
VH: VQLVQESGPGPVKPSETLSLTCTVSGGSISSYYWSWIRQPAGKGLEWIGRIYTSGSTNYNPSLKSRVTMSVDTSKNQFSLKLSSVTAADTAVYYCARESGSLYMDVWGKGTAVTVSS
VL: DVVMTQSPATLSLPPGERATLSCRASQSVSSYLAWYQQKPGQAPRLLIYDASNRATGIPARFSGSGSGTDFTLTISSLEPEDFAVYYCQQRSNWPLTFGGGTKVDIK
[1]
  ZIKV binding Abs 450 nm: 0.87 Abs 450 nm
[2]
  % of Zika virus Neutralized (Vero infectivity assay), antibody at 4 µg/ml: 19.3%
